Measurements taken from patent US20250066503A1, “CELL INJURY INDUCING THERAPEUTIC DRUG FOR USE IN CANCER THERAPY” (CHUGAI SEIYAKU KABUSHIKI KAISHA, priority 2016, published 2025).
Changes are numbered by the printed parent chain. Blank lines part the entries; values can stand above or below the binder they belong to.

Target: T1, soluble human CD3 epsilon chain (human, UniProt P07766 23-126)
T1 construct: also called CD3ε
Assay: SPR

T1 sequence (P07766 23-126 limits assumed): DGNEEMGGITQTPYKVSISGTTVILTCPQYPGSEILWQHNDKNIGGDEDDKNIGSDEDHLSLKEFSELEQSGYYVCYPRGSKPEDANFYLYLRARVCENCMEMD

Kd: 29.3 nM
B1: TR01H040-E22Hh/none-Hi-Kn010G3/TR01L008-k0 (antibody, V domains shown)
VH: QVQLVESGGGLVQPGRSLRLSCAASGFTFSNAWMHWVRQAPGKGLEWVAQIKDKSQNYATYYAESVKGRFTISRADSKNSIYLQMNSLKTEDTAVYYCRYVHYSASYGVDAWGQGTTVTVSS
VL: DIVMTQSPLSLPVTPGEPASISCQASESLVHSNRNTYLHWYQQKPGQAPRLLIYKVSNRFRGVPDRFSGSGSGTDFTLKISRVEAEDVGVYYCGQGTQVPYTFGQGTKLEIK
notes: one-arm

Kd: 31.3 nM
B2: TR01H062-E22Hh/none-Hi-Kn010G3/L0000-k0 (antibody, V domains shown)
VH: B1 VH with S104A
VL: DIVMTQSPLSLPVTPGEPASISCRSSQSLVHSNRNTYLHWYQQKPGQAPRLLIYKVSNRFSGVPDRFSGSGSGTDFTLKISRVEAEDVGVYYCGQGTQVPYTFGQGTKLEIKR
notes: one-arm

Kd: 31 nM
B3: TR01H084-E22Hh/none-Hi-Kn010G3/L0272-k0 (antibody, V domains shown)
VH: B1 VH with L11V, R16G, S104A, S106G, A111I
VL: B1 VL with Q24R, A25S, E27Q, S28P, N35Q, R61S
notes: one-arm

Kd: 42.5 nM
B4: TR01H082-E22Hh/none-Hi-Kn010G3/TR01L023-k0 (antibody, V domains shown)
VH: B1 VH with A75D, I81L, S104A, S106G
VL: B1 VL with Q24R, A25S, E27Q, L29P, Q42L, A48S, R50Q, R61S, G94T
notes: one-arm

Kd: 136 nM
B5: TR01H082-E22Hh/none-Hi-Kn010G3/L0268-k0 (antibody, V domains shown)
VH: B1 VH with A75D, I81L, S104A, S106G
VL: B1 VL with Q24R, A25S, E27Q, L29P, L38I, H39Q, R61S, G94V
notes: one-arm

Kd: 74.1 nM
B6: TR01H067-E22Hh/none-Hi-Kn010G3/L0215-k0 (antibody, V domains shown)
VH: B1 VH with A75D, I81L, S104A
VL: B1 VL with Q24R, A25S, E27Q, S28P, L29P, L38I, R61S
notes: one-arm

Kd: 86.4 nM
B7: TR01H067-E22Hh/none-Hi-Kn010G3/TR01L015-k0 (antibody, V domains shown)
VH: B1 VH with A75D, I81L, S104A
VL: B1 VL with Q24R, A25S, E27Q, L29P, Q42L, A48S, R50Q, R61S
notes: one-arm

Kd: 74.2 nM
B8: TR01H082-E22Hh/none-Hi-Kn010G3/L0270-k0 (antibody, V domains shown)
VH: B1 VH with A75D, I81L, S104A, S106G
VL: B1 VL with Q24R, A25S, E27Q, N35Q, R61S
notes: one-arm

Kd: 8.35 nM
B9: CE115HA179-G1dh//-Hi-Kn010G3/L0000-k0 (antibody, V domains shown)
VH: B1 VH with D53A, Q56N, S104G, S106Y, D110Q
VL: B2 VL
notes: one-arm

Kd: 52.6 nM
B10: TR01H067-E22Hh/none-Hi-Kn010G3/TR01L018-k0 (antibody, V domains shown)
VH: B1 VH with A75D, I81L, S104A
VL: B1 VL with L29P, Q42L, A48S, R50Q, R61S
notes: one-arm

Kd: 35.5 nM
B11: CE115HA177-G1dh//-Hi-Kn010G3/L0000-k0 (antibody, V domains shown)
VH: B1 VH with D53A, Q56N, S104G, S106Y
VL: B2 VL
notes: one-arm

Kd: 10.9 nM
B12: TR01H067-E22Hh/none-Hi-Kn010G3/TR01L016-k0 (antibody, V domains shown)
VH: B1 VH with A75D, I81L, S104A
VL: B1 VL with Q24R, A25S, E27Q, L29P, Q42L, A48S, R50Q, R61S, G94Y
notes: one-arm

Kd: 30.9 nM
B13: TR01H082-E22Hh/none-Hi-Kn010G3/L0263-k0 (antibody, V domains shown)
VH: B1 VH with A75D, I81L, S104A, S106G
VL: B1 VL with Q24R, A25S, E27Q, L29P, L38I, R61S, G94A
notes: one-arm

Kd: 6.13 nM
B14: TR01H071-E22Hh/none-Hi-Kn010G3/L0200-k0 (antibody, V domains shown)
VH: B1 VH with Q56N, S104A, A111I
VL: B1 VL with Q24R, A25P, E27Q, L29P, R61S
notes: one-arm

Kd: 15.4 nM
B15: TR01H061-E22Hh/none-Hi-Kn010G3/L0215-k0 (antibody, V domains shown)
VH: B1 VH with S104A, A111I
VL: B1 VL with Q24R, A25S, E27Q, S28P, L29P, L38I, R61S
notes: one-arm

Kd: 22.9 nM
B16: TR01H082-E22Hh/none-Hi-Kn010G3/L0267-k0 (antibody, V domains shown)
VH: B1 VH with A75D, I81L, S104A, S106G
VL: B1 VL with Q24R, A25P, E27Q, L29P, R61S, G94V
notes: one-arm

Kd: 25.1 nM
B17: TR01H071-E22Hh/none-Hi-Kn010G3/L0226-k0 (antibody, V domains shown)
VH: B1 VH with Q56N, S104A, A111I
VL: B1 VL with Q24R, A25S, E27Q, L29P, L38I, R61S, G94I
notes: one-arm

Kd: 16.8 nM
B18: CE115HA180-G1dh//-Hi-Kn010G3/L0000-k0 (antibody, V domains shown)
VH: B1 VH with L11V, D53A, Q56N, I81L, S104G, S106Y, D110Q
VL: B2 VL
notes: one-arm

Kd: 39.5 nM
B19: TR01H040-E22Hh/none-Hi-Kn010G3/TR01L015-k0 (antibody, V domains shown)
VH: B1 VH
VL: B1 VL with Q24R, A25S, E27Q, L29P, Q42L, A48S, R50Q, R61S
notes: one-arm

Kd: 68.2 nM
B20: TR01H082-E22Hh/none-Hi-Kn010G3/L0271-k0 (antibody, V domains shown)
VH: B1 VH with A75D, I81L, S104A, S106G
VL: B1 VL with Q24R, A25S, E27Q, S28P, L29P, N35Q, R61S
notes: one-arm

Kd: 50.5 nM
B21: CE115HA192-E22Hh//-Hi-Kn010G3/L0000-k0 (antibody, V domains shown)
VH: B1 VH with L11V, D53A, Q56N, A75D, I81L, S104Y, S106Y
VL: B2 VL
notes: one-arm

Kd: 2.52 nM
B22: TR01H040-E22Hh/none-Hi-Kn010G3/TR01L016-k0 (antibody, V domains shown)
VH: B1 VH
VL: B1 VL with Q24R, A25S, E27Q, L29P, Q42L, A48S, R50Q, R61S, G94Y
notes: one-arm

Kd: 50.7 nM
B23: TR01H082-E22Hh/none-Hi-Kn010G3/L0259-k0 (antibody, V domains shown)
VH: B1 VH with A75D, I81L, S104A, S106G
VL: B1 VL with Q24R, A25S, E27Q, L29P, L38I, R61S, G94T
notes: one-arm

Kd: 74.4 nM
B24: TR01H082-E22Hh/none-Hi-Kn010G3/L0272-k0 (antibody, V domains shown)
VH: B1 VH with A75D, I81L, S104A, S106G
VL: B1 VL with Q24R, A25S, E27Q, S28P, N35Q, R61S
notes: one-arm
